From PMC3444665 (Virology, 2012)

Assays:
Assay in all cases: pull-down
[1] = target: T1, GST-Agno (F31A) (JC virus (JCV Mad-1), UniProt P03086 1-71, F31A)
T1 sequence: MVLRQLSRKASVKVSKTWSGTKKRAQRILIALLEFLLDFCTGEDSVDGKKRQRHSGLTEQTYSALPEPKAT

[2] = target: T2, GST-Agno (F35A) (JC virus (JCV Mad-1), UniProt P03086 1-71, F35A)
T2 sequence: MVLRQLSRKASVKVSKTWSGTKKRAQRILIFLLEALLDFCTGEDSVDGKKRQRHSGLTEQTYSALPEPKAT

[3] = target: T3, GST-Agno (F39A) (JC virus (JCV Mad-1), UniProt P03086 1-71, F39A)
T3 sequence: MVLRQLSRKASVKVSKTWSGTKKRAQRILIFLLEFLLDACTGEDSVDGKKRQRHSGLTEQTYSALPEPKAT

Measured: fold decrease of the interaction against WT agnoprotein

B1: JCV large T-antigen in whole-cell extracts of HJC-15b cells (natural protein)
chain: MDKVLNREESMELMDLLGLDRSAWGNIPVMRKAYLKKCKELHPDKGGDEDKMKRMNFLYKKMEQGVKVAHQPDFGTWNSSEVPTYGTDEWESWWNTFNEKWDEDLFCHEEMFASDDENTGSQHSTPPKKKKKVEDPKDFPVDLHAFLSQAVFSNRTVASFAVYTTKEKAQILYKKLMEKYSVTFISRHGFGGHNILFFLTPHRHRVSAINNYCQKLCTFSFLICKGVNKEYLFYSALCRQPYAVVEESIQGGLKEHDFNPEEPEETKQVSWKLVTQYALETKCEDVFLLMGMYLDFQENPQQCKKCEKKDQPNHFNHHEKHYYNAQIFADSKNQKSICQQAVDTVAAKQRVDSIHMTREEMLVERFNFLLDKMDLIFGAHGNAVLEQYMAGVAWIHCLLPQMDTVIYDFLKCIVLNIPKKRYWLFKGPIDSGKTTLAAALLDLCGGKSLNVNMPLERLNFELGVGIDQFMVVFEDVKGTGAESRDLPSGHGISNLDCLRDYLDGSVKVNLERKHQNKRTQVFPPGIVTMNEYSVPRTLQARFVRQIDFRPKAYLRKSLSCSEYLLEKRILQSGMTLLLLLIWFRPVADFAAAIHERIVQWKERLDLEISMYTFSTMKANVGMGRPILDFPREEDSEAEDSGHGSSTESQSQCFSQVSEASGADTQENCTFHICKGFQCFKKPKTPPPK
> 3 fold: all assays above
